Laboratory results: patent US20160251695

Target: T1, α-fructosyl-valyl-histidyl-leucyl-threonyl-proryl-glutamic acid
T1 chain: VHLTPE
Details: for αF6P oxidation activity: scale: relative value

Protein | αF6P oxidation activity ratio (relative value (CFP-T7-H6 = 100)) | αF6P oxidation activity | αF6P oxidation activity ratio (relative value (CFP-T7-H20 = 100)) | αF6P oxidation activity ratio (relative value (CFP-T7-H26 = 100))
CFP-T7-H14 (protein) MTSNRADTRVIVVGGGGTIGSSTALHLVRSGYAPANITVLDTFEIPSAQSAGHDLNKIMGIDLRNKVDLQMSLEARQMWKEDELFQPFFHNTGRMDCEHTPEGIEDLKKLYQRLHDAGAGLEKTHAWLDNEDEILSKMPLLQRDQIQGWKAIWSQDGGWLAAAKAINAIGQFLKERGVKFGFGGAGSFKQPLFDDEGTTCIGVETADGTKYYADKVVLAAGAWSPTLVDLEDQCCSKAWVYAHIQLTPEEAAEYKGVPVVYNGEFGFFFEPDEFGVIKVCDEFPGFSRFKEHQPYGAPSPKRISVPRSHAKHPTDTYPDASEVSIKKAIATFLPRFQDKELFNRALCWCTDTADAALLMCEHPKWKNFILATGDSGHSFKILPNVGKYVVELIEGRLPEEMAYQWRWRPGGDALKSRRAAPPKDLADMPGWKHDPKL | 183 | 4.22 | – | –
CFP-T7-H26 (protein) MTSNRADTRVIVVGGGGTIGSSTALHLVRSGYAPANITVLDTFEIPSAQSAGHDLNKIMGIDHRNKVDLQMSLEARQMWKEDELFQPFFHNTGRMDCEHTPEGIEKLKKLYQKLHDAGAGLEKTHAWLDNEDEILSKMPLLQRDQIQGWKAIWSQDGGWLAAAKAINAIGQFLKERGVKFGFGGAGSFKQPLFDDEGTTCIGVETADGTKYYADKVVLAAGAWSPTLVDLEDQCCSKAWVYAHIQLTPEEAAEYKGVPVVYNGEFGFFFEPDEFGVIKVCDEFPGFSRFKEHQPYGAPSPKRISVPRSHAKHPTDTYPDASEVSIKKAIATFLPRFQDKELFNRALCWCTDTADAALLMCEHPKWKNFILATGDSGHSFKILPNVGKYVVELIEGRLPEEMAYQWRWRPGGDALKSRRAAPPKDLADMPGWKHDPKL | – | 84.3 | 142 | 100
CFP-T7-H25 (protein) MTSNRADTRVIVVGGGGTIGSSTALHLVRSGYAPANITVLDTFEIPSAQSAGHDLNKIMGIDDRNKVDLQMSLEARQMWKEDELFQPFFHNTGRMDCEHTPEGIEKLKKLYQKLHDAGAGLEKTHAWLDNEDEILSKMPLLQRDQIQGWKAIWSQDGGWLAAAKAINAIGQFLKERGVKFGFGGAGSFKQPLFDDEGTTCIGVETADGTKYYADKVVLAAGAWSPTLVDLEDQCCSKAWVYAHIQLTPEEAAEYKGVPVVYNGEFGFFFEPDEFGVIKVCDEFPGFSRFKEHQPYGAPSPKRISVPRSHAKHPTDTYPDASEVSIKKAIATFLPRFQDKELFNRALCWCTDTADAALLMCEHPKWKNFILATGDSGHSFKILPNVGKYVVELIEGRLPEEMAYQWRWRPGGDALKSRRAAPPKDLADMPGWKHDPKL | – | – | 24 | –
CFP-T7-H27 (protein) MTSNRADTRVIVVGGGGTIGSSTALHLVRSGYAPANITVLDTFEIPSAQSAGHDLNKIMGIDKRNKVDLQMSLEARQMWKEDELFQPFFHNTGRMDCEHTPEGIEKLKKLYQKLHDAGAGLEKTHAWLDNEDEILSKMPLLQRDQIQGWKAIWSQDGGWLAAAKAINAIGQFLKERGVKFGFGGAGSFKQPLFDDEGTTCIGVETADGTKYYADKVVLAAGAWSPTLVDLEDQCCSKAWVYAHIQLTPEEAAEYKGVPVVYNGEFGFFFEPDEFGVIKVCDEFPGFSRFKEHQPYGAPSPKRISVPRSHAKHPTDTYPDASEVSIKKAIATFLPRFQDKELFNRALCWCTDTADAALLMCEHPKWKNFILATGDSGHSFKILPNVGKYVVELIEGRLPEEMAYQWRWRPGGDALKSRRAAPPKDLADMPGWKHDPKL | – | – | 7 | –
CFP-T7-H24 (protein) MTSNRADTRVIVVGGGGTIGSSTALHLVRSGYAPANITVLDTFEIPSAQSAGHDLNKIMGIDARNKVDLQMSLEARQMWKEDELFQPFFHNTGRMDCEHTPEGIEKLKKLYQKLHDAGAGLEKTHAWLDNEDEILSKMPLLQRDQIQGWKAIWSQDGGWLAAAKAINAIGQFLKERGVKFGFGGAGSFKQPLFDDEGTTCIGVETADGTKYYADKVVLAAGAWSPTLVDLEDQCCSKAWVYAHIQLTPEEAAEYKGVPVVYNGEFGFFFEPDEFGVIKVCDEFPGFSRFKEHQPYGAPSPKRISVPRSHAKHPTDTYPDASEVSIKKAIATFLPRFQDKELFNRALCWCTDTADAALLMCEHPKWKNFILATGDSGHSFKILPNVGKYVVELIEGRLPEEMAYQWRWRPGGDALKSRRAAPPKDLADMPGWKHDPKL | – | 86.7 | 123 | –
